Experiments:
Hck = Hck (UniProt P08631); experiment: phosphorylation enrichment, bacterial display (enrichment ratio); higher = better substrate or ligand; peptides without Tyr show the background
c-Src = experiment: as above
Jak2 = Jak2 (UniProt O60674); experiment: as above
Fyn = Fyn (UniProt P06241); experiment: as above
EPHB2 = EPHB2 (UniProt P29323); experiment: as above
EPHB1 = EPHB1 (UniProt P54762); experiment: as above
AncSZ = experiment: as above
Fer (mouse) = experiment: as above
MERTK = MERTK (UniProt Q12866); experiment: as above
FGFR3 = FGFR3 (UniProt P22607); experiment: as above
Fes = Fes (UniProt P07332); experiment: as above
c-Abl (mouse) = experiment: as above
FGFR1 = FGFR1 (UniProt P11362); experiment: as above
c-Src SH2 = experiment: SH2 binding enrichment of the phosphorylated peptide, bacterial display (enrichment ratio); higher = better substrate or ligand; peptides without Tyr show the background
SHP2-C SH2 = experiment: as above
Grb2 SH2 = Grb2 SH2 (UniProt P62993); experiment: as above
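Throughout, for SH2 binding enrichment of the phosphorylated peptide, bacterial display: peptide library displayed on the E. coli surface as eCPX fusions, selected cells deep-sequenced, score is each peptide's frequency after selection divided by its frequency in the input.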
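Throughout, for phosphorylation enrichment, bacterial display: 11-residue human phosphosite peptides and single-mutation variants displayed on the E. coli surface, counted by deep sequencing, each peptide's frequency after selection divided by its frequency in the unselected input library; frequency after pTyr selection over input frequency; kinase dosed for 20-30% of maximal phosphorylation in three min.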

Sequence of Fyn (P06241 whole entry, looked up): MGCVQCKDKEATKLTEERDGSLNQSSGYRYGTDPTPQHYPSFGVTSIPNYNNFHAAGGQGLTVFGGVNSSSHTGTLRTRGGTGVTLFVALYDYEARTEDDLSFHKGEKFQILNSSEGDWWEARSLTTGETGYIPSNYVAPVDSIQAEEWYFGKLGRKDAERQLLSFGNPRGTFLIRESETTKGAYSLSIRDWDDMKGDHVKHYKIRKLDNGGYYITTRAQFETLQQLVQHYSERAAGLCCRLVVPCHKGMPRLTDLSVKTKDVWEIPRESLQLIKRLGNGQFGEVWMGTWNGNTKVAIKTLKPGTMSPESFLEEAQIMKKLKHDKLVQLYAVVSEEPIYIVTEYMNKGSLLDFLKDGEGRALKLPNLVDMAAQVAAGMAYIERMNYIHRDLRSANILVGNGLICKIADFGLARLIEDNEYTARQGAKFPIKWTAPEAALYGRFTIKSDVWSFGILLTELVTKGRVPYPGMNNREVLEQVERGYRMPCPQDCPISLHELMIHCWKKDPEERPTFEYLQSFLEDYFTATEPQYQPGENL
Sequence of EPHB1 (P54762 whole entry, looked up): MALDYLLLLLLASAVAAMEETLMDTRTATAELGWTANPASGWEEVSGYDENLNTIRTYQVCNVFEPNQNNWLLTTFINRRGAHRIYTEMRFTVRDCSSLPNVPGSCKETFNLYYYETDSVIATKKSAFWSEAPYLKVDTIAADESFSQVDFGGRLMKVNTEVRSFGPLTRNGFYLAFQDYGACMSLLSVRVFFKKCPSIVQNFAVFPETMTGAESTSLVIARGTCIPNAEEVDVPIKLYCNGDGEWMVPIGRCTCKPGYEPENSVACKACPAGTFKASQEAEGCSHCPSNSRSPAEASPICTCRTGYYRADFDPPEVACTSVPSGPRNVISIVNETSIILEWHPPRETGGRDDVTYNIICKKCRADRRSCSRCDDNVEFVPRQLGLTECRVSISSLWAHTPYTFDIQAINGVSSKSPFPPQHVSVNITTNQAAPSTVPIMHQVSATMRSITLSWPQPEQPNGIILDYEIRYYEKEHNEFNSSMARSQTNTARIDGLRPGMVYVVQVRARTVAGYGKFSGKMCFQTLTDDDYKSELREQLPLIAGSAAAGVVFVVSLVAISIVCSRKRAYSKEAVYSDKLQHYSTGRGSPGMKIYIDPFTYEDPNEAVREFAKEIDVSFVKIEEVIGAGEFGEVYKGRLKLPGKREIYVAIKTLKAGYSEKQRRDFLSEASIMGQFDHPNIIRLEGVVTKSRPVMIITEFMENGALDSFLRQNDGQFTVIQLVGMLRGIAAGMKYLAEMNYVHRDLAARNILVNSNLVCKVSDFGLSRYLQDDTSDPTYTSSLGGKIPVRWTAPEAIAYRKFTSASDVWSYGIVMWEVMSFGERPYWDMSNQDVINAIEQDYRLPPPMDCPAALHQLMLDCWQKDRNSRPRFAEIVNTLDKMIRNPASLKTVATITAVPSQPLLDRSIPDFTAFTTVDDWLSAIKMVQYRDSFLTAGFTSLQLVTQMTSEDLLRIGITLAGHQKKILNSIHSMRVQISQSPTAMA
Sequence of FGFR1 (P11362 whole entry, looked up): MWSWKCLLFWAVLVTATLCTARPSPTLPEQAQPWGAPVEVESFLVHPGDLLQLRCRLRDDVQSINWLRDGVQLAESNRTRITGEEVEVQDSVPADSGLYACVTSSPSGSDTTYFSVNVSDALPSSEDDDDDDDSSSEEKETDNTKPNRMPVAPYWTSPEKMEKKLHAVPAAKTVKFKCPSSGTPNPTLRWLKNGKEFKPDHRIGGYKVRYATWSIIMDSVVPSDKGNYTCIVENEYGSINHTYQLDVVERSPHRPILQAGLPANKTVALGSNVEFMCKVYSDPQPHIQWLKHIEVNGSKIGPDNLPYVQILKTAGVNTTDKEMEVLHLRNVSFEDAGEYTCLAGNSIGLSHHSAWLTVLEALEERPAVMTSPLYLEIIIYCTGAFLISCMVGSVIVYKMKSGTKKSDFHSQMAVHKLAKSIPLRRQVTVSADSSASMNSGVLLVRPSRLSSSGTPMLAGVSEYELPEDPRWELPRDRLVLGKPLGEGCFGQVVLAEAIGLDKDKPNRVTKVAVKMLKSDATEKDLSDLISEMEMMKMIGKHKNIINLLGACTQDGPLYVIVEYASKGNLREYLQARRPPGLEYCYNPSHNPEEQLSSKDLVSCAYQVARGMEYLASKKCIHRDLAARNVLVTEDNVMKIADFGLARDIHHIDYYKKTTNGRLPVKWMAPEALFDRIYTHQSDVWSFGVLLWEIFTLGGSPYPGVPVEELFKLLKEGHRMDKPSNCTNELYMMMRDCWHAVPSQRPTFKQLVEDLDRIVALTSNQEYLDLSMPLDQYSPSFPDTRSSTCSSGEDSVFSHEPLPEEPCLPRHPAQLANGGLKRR
Sequence of EPHB2 (P29323 whole entry, looked up): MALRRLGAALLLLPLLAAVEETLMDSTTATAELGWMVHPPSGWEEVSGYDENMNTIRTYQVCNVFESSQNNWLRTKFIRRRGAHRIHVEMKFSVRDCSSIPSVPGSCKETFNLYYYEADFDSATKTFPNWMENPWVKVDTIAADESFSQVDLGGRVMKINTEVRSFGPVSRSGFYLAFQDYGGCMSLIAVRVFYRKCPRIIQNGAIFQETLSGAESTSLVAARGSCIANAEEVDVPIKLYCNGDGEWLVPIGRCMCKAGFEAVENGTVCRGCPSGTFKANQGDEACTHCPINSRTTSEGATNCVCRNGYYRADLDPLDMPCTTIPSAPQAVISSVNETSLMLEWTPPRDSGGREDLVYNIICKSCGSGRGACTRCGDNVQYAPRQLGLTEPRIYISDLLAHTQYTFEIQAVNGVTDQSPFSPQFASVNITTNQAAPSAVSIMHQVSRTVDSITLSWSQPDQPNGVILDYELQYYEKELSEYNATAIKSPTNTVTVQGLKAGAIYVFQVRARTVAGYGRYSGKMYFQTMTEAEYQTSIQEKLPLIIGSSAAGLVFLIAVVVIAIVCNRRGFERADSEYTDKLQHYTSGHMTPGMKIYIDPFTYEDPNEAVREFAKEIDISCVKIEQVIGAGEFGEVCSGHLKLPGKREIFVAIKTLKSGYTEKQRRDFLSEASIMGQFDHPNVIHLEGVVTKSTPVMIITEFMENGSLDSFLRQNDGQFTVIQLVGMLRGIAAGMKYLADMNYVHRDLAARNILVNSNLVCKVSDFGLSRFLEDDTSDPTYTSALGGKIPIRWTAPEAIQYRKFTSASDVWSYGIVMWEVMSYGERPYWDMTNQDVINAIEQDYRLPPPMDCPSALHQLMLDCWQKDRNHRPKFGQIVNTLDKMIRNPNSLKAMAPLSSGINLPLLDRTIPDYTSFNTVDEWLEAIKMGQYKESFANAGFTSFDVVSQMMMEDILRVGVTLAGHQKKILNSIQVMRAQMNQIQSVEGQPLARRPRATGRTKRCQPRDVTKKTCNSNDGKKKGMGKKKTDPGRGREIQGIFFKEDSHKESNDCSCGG
Sequence of Hck (P08631 whole entry, looked up): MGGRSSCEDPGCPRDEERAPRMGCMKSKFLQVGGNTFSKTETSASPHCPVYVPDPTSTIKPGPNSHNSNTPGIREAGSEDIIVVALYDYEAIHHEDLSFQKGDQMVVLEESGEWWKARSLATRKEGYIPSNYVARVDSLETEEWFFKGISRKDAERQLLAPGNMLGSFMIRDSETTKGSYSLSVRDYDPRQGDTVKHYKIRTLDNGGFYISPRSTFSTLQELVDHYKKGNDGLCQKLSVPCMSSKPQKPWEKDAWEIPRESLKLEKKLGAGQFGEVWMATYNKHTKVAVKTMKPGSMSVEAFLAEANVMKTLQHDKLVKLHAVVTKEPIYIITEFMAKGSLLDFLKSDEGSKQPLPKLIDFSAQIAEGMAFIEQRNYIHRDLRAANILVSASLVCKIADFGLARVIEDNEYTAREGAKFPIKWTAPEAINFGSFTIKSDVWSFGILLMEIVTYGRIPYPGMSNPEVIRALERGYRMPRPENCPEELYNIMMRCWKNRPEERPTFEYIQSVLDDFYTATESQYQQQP
Sequence of FGFR3 (P22607 whole entry, looked up): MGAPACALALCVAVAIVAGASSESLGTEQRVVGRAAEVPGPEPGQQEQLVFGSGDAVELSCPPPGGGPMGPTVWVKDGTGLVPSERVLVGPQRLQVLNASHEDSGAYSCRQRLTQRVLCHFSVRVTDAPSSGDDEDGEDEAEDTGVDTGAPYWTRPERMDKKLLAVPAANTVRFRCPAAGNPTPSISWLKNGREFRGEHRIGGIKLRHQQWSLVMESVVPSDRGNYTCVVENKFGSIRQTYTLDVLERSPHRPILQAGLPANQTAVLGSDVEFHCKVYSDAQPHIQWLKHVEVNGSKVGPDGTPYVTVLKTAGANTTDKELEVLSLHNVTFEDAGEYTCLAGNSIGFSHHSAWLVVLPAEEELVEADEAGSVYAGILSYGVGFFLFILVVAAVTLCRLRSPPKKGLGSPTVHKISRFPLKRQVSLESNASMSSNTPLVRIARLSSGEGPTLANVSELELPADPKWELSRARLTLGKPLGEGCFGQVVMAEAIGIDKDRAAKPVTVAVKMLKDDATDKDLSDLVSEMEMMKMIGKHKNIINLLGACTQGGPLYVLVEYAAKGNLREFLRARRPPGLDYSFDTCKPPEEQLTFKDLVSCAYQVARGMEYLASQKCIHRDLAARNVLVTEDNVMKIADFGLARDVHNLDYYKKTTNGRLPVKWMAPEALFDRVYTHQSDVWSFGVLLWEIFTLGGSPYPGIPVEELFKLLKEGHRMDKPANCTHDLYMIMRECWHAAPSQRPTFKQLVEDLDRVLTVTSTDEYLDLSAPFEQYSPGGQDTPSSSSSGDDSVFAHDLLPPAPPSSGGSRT
Sequence of Grb2 SH2 (P62993 whole entry, looked up, the tested form may be a part): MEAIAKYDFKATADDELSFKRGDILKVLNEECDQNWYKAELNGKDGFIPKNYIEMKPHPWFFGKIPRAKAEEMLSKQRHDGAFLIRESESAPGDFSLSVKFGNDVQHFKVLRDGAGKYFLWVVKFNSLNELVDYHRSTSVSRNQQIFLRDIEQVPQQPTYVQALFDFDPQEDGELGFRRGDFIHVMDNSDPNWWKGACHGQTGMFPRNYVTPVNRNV

Sequence | phosphorylation enrichment (Hck) | phosphorylation enrichment (c-Src) | phosphorylation enrichment (Jak2) | phosphorylation enrichment (Fyn) | phosphorylation enrichment (EPHB2) | phosphorylation enrichment (EPHB1) | phosphorylation enrichment (AncSZ) | phosphorylation enrichment (Fer (mouse)) | phosphorylation enrichment (MERTK) | phosphorylation enrichment (FGFR3) | phosphorylation enrichment (Fes) | phosphorylation enrichment (c-Abl (mouse)) | phosphorylation enrichment (FGFR1) | SH2 binding enrichment (c-Src SH2) | SH2 binding enrichment (SHP2-C SH2) | SH2 binding enrichment (Grb2 SH2)
QKMLDYLKEKK [RYR2_Y3780] | 0.491 | 0.513 | 0.579 | 0.542 | 0.345 | 0.401 | 0.9 | 0.442 | 0.398 | 0.673 | 1.1 | 0.533 | 0.553 | 0.498 | 0.778 | 1.09
QKNVSYVSRVS [TASOR_Y1043_T1046R] | 0.477 | 0.457 | 0.69 | 0.438 | 0.564 | 0.683 | 1.2 | 0.764 | 0.537 | 0.894 | 0.739 | 0.547 | 0.782 | 0.369 | 1.21 | 0.853
QLAPQYTYTQG [FLNA_Y1761_A1764T] | 0.533 | 0.526 | 0.611 | 0.422 | 0.413 | 0.436 | 0.828 | 0.517 | 1.17 | 0.768 | 0.766 | 0.36 | 0.411 | 1.34 | 1.03 | 0.766
QLCVSYPGGYT [PROS1_Y259_N258S] | 0.416 | 0.4 | 0.862 | 0.597 | 0.719 | 0.588 | 1.03 | 0.591 | 0.402 | 0.665 | 0.888 | 0.683 | 0.592 | 0.541 | 0.784 | 0.861
QLFGAYLRIHA [BSCL2_Y213_YF] | 1.02 | 0.559 | 1.37 | 0.784 | 0.915 | 1.17 | 1.49 | 0.837 | 0.599 | 2.28 | 2.12 | 0.744 | 0.928 | 0.972 | 0.952 | 1.28
QMQAAYQKAVA [HBD_Y131_V134A] | 0.449 | 0.307 | 0.635 | 0.47 | 0.292 | 0.583 | 0.576 | 0.405 | 0.368 | 0.508 | 0.798 | 0.451 | 0.652 | 0.42 | 0.76 | 0.893
QMVGKYASSYM [AVPR2_Y124_M123K] | 0.379 | 0.459 | 0.717 | 0.529 | 0.401 | 0.336 | 0.626 | 0.266 | 0.475 | 0.452 | 0.736 | 0.786 | 0.29 | 0.654 | 1.21 | 1.02
QMVRMYASSFM [AVPR2_Y124_G122R_YF] | 0.425 | 0.328 | 0.769 | 0.605 | 0.552 | 0.59 | 1.26 | 0.482 | 0.544 | 0.677 | 0.843 | 0.745 | 0.605 | 0.571 | 0.774 | 0.831
